Data on four molecules can be found in article PMC7150778 (2020).

By Kd is commonly meant the equilibrium constant for the complex coming apart.

For assay [1], the target named is NS1 ED (Influenza A virus) (UniProt P69278). The settings on record: cited from earlier work.
Assay [2] has as its target p85β iSH2 (UniProt O00459). The conditions noted are these: cited from earlier work.
In assay [3] the target is T1, p85β iSH2 (UniProt O00459).
T1 chain: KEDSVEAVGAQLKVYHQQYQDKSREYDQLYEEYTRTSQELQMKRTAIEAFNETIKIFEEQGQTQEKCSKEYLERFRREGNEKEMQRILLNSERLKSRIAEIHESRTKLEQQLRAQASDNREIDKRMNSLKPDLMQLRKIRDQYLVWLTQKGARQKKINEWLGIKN

Read-outs that look alike come from different tables or passages of the source.

Turning to NS1 ED (from UniProt P69278), the dissociation constant Kd in assay [1] is 89000 nM.
As to 1918 NS1 ED-CTT (from UniProt Q0PDM0), in the assay with p85β iSH2 [2], the Kd was 300 nM.

B1: 1918 NS1 ED-ΔCTT (protein)
chain: TMASVPASRYLTDMTLEELSRDWSMLIPKQKVAGPLCIRMDQAIMDKNIILKANFSVIFDRLETLILLRAFTEEGAIVGEISPLPSLPGHTAEDVKNAVGVLIGGLEWNDNTVRVSETLQRFAWRSSNENGRPPLTPKQKREMAGTIRSEV
Take B1: binding with p85β iSH2 [3] was put at a Kd of 370 nM.

B2: 1918 NS1 ED-CTT (protein)
chain: TMASVPASRYLTDMTLEELSRDWSMLIPKQKVAGPLCIRMDQAIMDKNIILKANFSVIFDRLETLILLRAFTEEGAIVGEISPLPSLPGHTAEDVKNAVGVLIGGLEWNDNTVRVSETLQRFAWRSSNENGRPPLTPKQKREMAGTIRSEV
On to B2, for which the Kd with p85β iSH2 [3] worked out at 700 nM.
